{
  "source": "paper PMC2254190",
  "about": "“T Cell Receptor Engagement Triggers Its CD3ε and CD3ζ Subunits to Adopt a Compact, Locked Conformation” (PLoS ONE, 2008)",
  "biological_target": "SH3.1 domain of Nck (NMR work, in preparation) (UniProt P16333 2-61)",
  "test": "not stated; affinity told in the discussion without method",
  "data": [
    {"binder": "CD3ε polypeptide (NMR work, in preparation) (domain or fragment, The construct is not described (unpublished NMR work, 'in preparation'). The whole cytoplasmic tail, by UniProt topology, is used because it holds the PPS with its upstream and downstream charged …) KNRKAKAKPVTRGAGAGGRQRGQNKERPPPVPNPDYEPIRKGQRDLYSGLNQRRI", "values": [
      {"measurement": "Kd", "value": "~100", "unit": "nM"}
    ]}
  ]
}
